The record followed here is patent publication US20250255902A1 (published 2025).

Targets include Gly1-2-D4; Gly2-1-F2; TEA1-E8; Gly3-2-C1.
Common to all, as to assay: BLI
(In general: BLI is a label-free optical method that tracks binding on a fibre tip over time.)

B1: MSLN (other)
chain: EVEKTACPSGKKAREIDESLIFYKKWELEACVDAALLATQMDRVNAIPFTYEQLDVLKHKLDELYPQGYPESVIQHLGYLFLKMSPEDIRKWNVTSLETLKALLEVNKGHEMSPQVATLIDRFVKGRGQLDKDTLDTLTAFYPGYLCSLSPEELSSVPPSSIWAVRPQDLDTCDPRQLDVLYPKARLAFQNMNGSEYFVKIQSFLGGAPTEDLKALSQQNVSMDLATFMKLRTDAVLPLTVAEVQKLLGPHVEGLKAEERHRPVRDWILRQRQDDLDTLGLGLQG
Regarding B1, the Kd (in general, the equilibrium constant for the complex coming apart) in the experiment with Gly1-2-D4 was 4.46 nM; with Gly2-1-F2 it was below 0.001 nM; with TEA1-E8, 0.166 nM; with Gly3-2-C1, 4.88 nM.
